Measurements as given in patent US20210284725A1 (Genentech, published 2021).
Blank lines part the entries; values can stand above or below the binder they belong to.

Tests used:
human IL-33 = target: T1, human IL-33 (human, UniProt O95760 112-270, limits assumed); assay: cell-based or functional assay
T1 sequence (looked up): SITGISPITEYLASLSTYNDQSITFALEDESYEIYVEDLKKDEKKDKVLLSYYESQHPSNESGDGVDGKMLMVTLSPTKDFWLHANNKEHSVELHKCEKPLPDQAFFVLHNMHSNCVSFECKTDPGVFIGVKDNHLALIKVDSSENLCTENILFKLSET

cyno IL-33 = target: T2, cyno IL-33 (cynomolgus monkey, UniProt A0A2K5W3I1 112-269); assay: cell-based or functional assay
T2 sequence: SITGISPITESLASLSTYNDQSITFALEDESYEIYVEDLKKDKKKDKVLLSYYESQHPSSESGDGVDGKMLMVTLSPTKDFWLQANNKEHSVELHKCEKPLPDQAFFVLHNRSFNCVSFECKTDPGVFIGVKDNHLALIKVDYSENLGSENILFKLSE

human IL-33 (His-tagged) [1] = target: T3, human IL-33 (His-tagged) (human, UniProt O95760 112-270, limits assumed); assay: SPR Biacore T200, antibody captured on anti-rat Fc, His-tagged IL-33 analyte, 25 C, 1:1 Langmuir
T3 construct: not shown: His tag
T3 sequence (looked up): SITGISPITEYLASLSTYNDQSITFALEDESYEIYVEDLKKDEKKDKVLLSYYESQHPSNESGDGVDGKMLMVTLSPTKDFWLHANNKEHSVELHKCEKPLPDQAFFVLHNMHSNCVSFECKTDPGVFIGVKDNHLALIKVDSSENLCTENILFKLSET
Method: (§1) The binding kinetics of top anti-IL-33 antibodies were measured using SPR on a BIACORE® T200 instrument (GE Healthcare). A CM5 Series S sensorchip was coated with anti-rat Fc (Jackson) to create a capture surface. Antibody binding was measured to human, cyno, rat, mouse and oxidized IL-33 (His-tagged) using a concentration series starting with 50 nM with 1:3 dilutions. Sensorgrams for binding of cytokine were recorded using an injection time of 2 min with a flow rate of 30 μl/min, at a temperature of 25° C., and with a running buffer of 10 mM HEPES, pH 7.4, 150 mM NaCl, 3 mM EDTA, and 0.005% TWEEN®20. After injection, disassociation of the IL-33 from the antibody was monitored for 10 min in running buffer. The surface was regenerated between binding cycles with a 30μ injection of 10 mM glycine HCl pH 1.7. After subtraction of a blank which contained running buffer only, sensorgrams observed for cytokine binding to anti-IL-33 antibody were analyzed using a 1:1 Langmuir binding model with software supplied by the manufacturer to calculate the kinetics and binding constants.

cyno IL-33 (His-tagged) [2] = target: T4, cyno IL-33 (His-tagged) (cynomolgus monkey, UniProt A0A2K5W3I1 112-269); assay: as above
T4 construct: not shown: His tag
T4 sequence: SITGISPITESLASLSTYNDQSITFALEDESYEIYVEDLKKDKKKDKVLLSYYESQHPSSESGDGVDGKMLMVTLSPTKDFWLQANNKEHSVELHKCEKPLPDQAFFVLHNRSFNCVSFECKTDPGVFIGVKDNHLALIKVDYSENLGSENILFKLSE
Method: as §1

rat IL-33 (His-tagged) = target: T5, rat IL-33 (His-tagged) (rat, UniProt Q66H70 109-264, limits assumed); assay: as above
T5 construct: not shown: His tag
T5 sequence (looked up): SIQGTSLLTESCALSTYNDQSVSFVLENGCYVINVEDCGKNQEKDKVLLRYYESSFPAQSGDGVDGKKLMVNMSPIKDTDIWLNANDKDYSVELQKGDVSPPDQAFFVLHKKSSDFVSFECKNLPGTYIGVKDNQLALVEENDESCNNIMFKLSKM
Method: as §1

mouse IL-33 (His-tagged) = target: T6, mouse IL-33 (His-tagged) (mouse, UniProt Q8BVZ5 109-266); assay: as above
T6 construct: also called murine IL-33; not shown: His tag
T6 sequence (looked up): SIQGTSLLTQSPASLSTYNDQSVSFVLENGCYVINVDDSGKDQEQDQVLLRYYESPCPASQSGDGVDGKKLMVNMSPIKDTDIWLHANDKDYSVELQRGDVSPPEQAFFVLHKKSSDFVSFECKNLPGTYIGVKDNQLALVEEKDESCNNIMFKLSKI
Method: as §1

human IL-33 (His-tagged) [3] = target: T3, human IL-33 (His-tagged); assay: SPR Biacore 8k, Fab amine-coupled to CM5 chip, His-tagged IL-33 analyte, 25 C, 1:1 Langmuir
Method: (§2) The binding kinetics of the 1E1v8 Fab were measured using SPR on a BIACORE® 8k instrument (GE Healthcare). 1E1v8 Fab was directly immobilized on 4 different flow cells of a CM5 Series S sensorchip at low density using amine coupling. Antibody fragment binding was measured to human and cyno IL-33 (His-tagged) using a concentration series starting with 50 nM with 1:3 dilutions. Sensorgrams for binding of IL-33 were recorded using an injection time of 2 min with a flow rate of 100 μl/min, at a temperature of 25° C. or 35° C., and with a running buffer of 10 mM HEPES, pH 7.4, 150 mM NaCl, 3 mM EDTA, and 0.005% TWEEN®20. After injection, disassociation of the IL-33 from the antibody was monitored for 30 min in running buffer. The surface was regenerated between binding cycles with a 30 μl injection of 10 mM glycine HCl pH 1.7. After subtraction of a blank which contained running buffer only, sensorgrams observed for cytokine binding to anti-IL-33 antibody were analyzed using a 1:1 Langmuir binding model with software supplied by the manufacturer to calculate the kinetics and binding constants.

cyno IL-33 (His-tagged) [4] = target: T4, cyno IL-33 (His-tagged); assay: as above
Method: as §2

human IL-33 (His-tagged) [5] = target: T3, human IL-33 (His-tagged); assay: SPR Biacore 8k, Fab amine-coupled to CM5 chip, His-tagged IL-33 analyte, 35 C, 1:1 Langmuir
Method: as §2

cyno IL-33 (His-tagged) [6] = target: T4, cyno IL-33 (His-tagged); assay: as above
Method: as §2

IC50 (M), IL-33 neutralization activity, HEK-BLUE IL-33 cells (SEAP reporter), human IL-33 at 160 pM (human IL-33): 3.6e-11 M | IC50 (M), IL-33 neutralization activity, HEK-BLUE IL-33 cells (SEAP reporter), cyno IL-33 at 300 pM (cyno IL-33): 1.6e-10 M | Kd (human IL-33 (His-tagged) [1]): 21 pM | koff (human IL-33 (His-tagged) [1]): 2.28e-05 s⁻¹ | kon (human IL-33 (His-tagged) [1]): 1.08e+06 M⁻¹ s⁻¹ | Kd (cyno IL-33 (His-tagged) [2]): 39.2 pM | koff (cyno IL-33 (His-tagged) [2]): 2.24e-05 s⁻¹ | kon (cyno IL-33 (His-tagged) [2]): 570000 M⁻¹ s⁻¹ | Kd (rat IL-33 (His-tagged)): 1600 pM | koff (rat IL-33 (His-tagged)): 0.000219 s⁻¹ | kon (rat IL-33 (His-tagged)): 140000 M⁻¹ s⁻¹ | Kd (mouse IL-33 (His-tagged)): 37400 pM | koff (mouse IL-33 (His-tagged)): 0.00213 s⁻¹ | kon (mouse IL-33 (His-tagged)): 56800 M⁻¹ s⁻¹
B1: rat anti-human IL-33 hybridoma antibody 1E1 (antibody, V domains shown)
VH: EVQLVESGGGLVQPGTSLKLSCLASGFTFNNYWMTWIRQAPGKGLEWIASITYTGGGTYYPDSVKGRFTISRDDAKSTLYLQMNSLRSEDTATYYCTRANYYYNTYGGFPYWGQGTLVTVSS
VL: DIQMTQSPASLSASLGETVSIECLASEGFSNDLAWYQQKSGKSPQLLIYAASRLQDGVPSRFSGSGSGTRFSLKISGMQPEDEADYFCQQGSKYPLTFGSGTKLEIK
notes: Purified rat hybridoma IgG; also called clone 1E1; hybridoma derived clone 1E1

Kd (human IL-33 (His-tagged) [3]): 14.7 pM | koff (human IL-33 (His-tagged) [3]): 9.99e-06 s⁻¹ | kon (human IL-33 (His-tagged) [3]): 684000 M⁻¹ s⁻¹ | Kd (cyno IL-33 (His-tagged) [4]): 22.3 pM | koff (cyno IL-33 (His-tagged) [4]): 7.85e-06 s⁻¹ | kon (cyno IL-33 (His-tagged) [4]): 354000 M⁻¹ s⁻¹ | Kd (human IL-33 (His-tagged) [5]): 14.8 pM | koff (human IL-33 (His-tagged) [5]): 1.26e-05 s⁻¹ | kon (human IL-33 (His-tagged) [5]): 858000 M⁻¹ s⁻¹ | Kd (cyno IL-33 (His-tagged) [6]): 34.5 pM | koff (cyno IL-33 (His-tagged) [6]): 1.82e-05 s⁻¹ | kon (cyno IL-33 (His-tagged) [6]): 527000 M⁻¹ s⁻¹
B2: 1E1v8 Fab (Fab, V domains shown)
VH: EVQLVESGGGLVQPGGSLRLSCAASGFTFNNYWMTWIRQAPGKGLEWVASITYTGGGTYYPDSVKGRFTISRDDAKSSLYLQMNSLRAEDTAVYYCTRANYYYNTYGGFPYWGQGTLVTVSS
VL: DIQMTQSPSSLSASVGDRVTITCLASEGFSNDLAWYQQKPGKSPKLLIYAASRLQDGVPSRFSGSGSGTDFTLTISSLQPEDFATYFCQQGSKYPLTFGGGTKVEIK
notes: also called 1E1v8 human Fab; anti-IL-33 1E1v8 Fab
